Experimental data from US20170252458A1 (EISAI R AND D MANAGEMENT, published 2017).
“And” between values parts separate entries of the source, which are not always exact repeats. Identical values can stand only once.

biological target: T1, Recombinant human folate receptor alpha (human, UniProt P15328 25-234); assay: ELISA, recombinant human FRA coated
T1 construct: also called FRA; FR
Description: Coating solution was discarded and the plates were washed three times using 1× PBS with 0.05% Tween-20 (PBST) buffer. Plates were blocked in 300 μL blocking buffer (1% BSA in PBST) at room temperature for 2 hours on an orbital shaker. […] Blocking buffer was discarded and 100 μL/well of diluted antibody was added to the plates. Plates were incubated at room temperature for 2 hours on an orbital shaker. Antibody solution was discarded and plates were washed three times using PBST. 100 μL/well of goat-anti-human IgG (H+L)-HRP (1:10,000 dilution in blocking buffer) solution was added to the plates, and plates were incubated at room temperature for 1 hour on an orbital shaker. Secondary antibody solution was discarded and plates were washed three times using PBST. 100 μL/well of QuantaBlu fluorogenic peroxidase substrate working solution (Thermo, Cat No. 15169) was added to the plates, and plates were incubated at room temperature for 30 min. Fluorescence was read at excitation 325 nm/emission 420 nm using a SpectraMax M5 (Molecular Devices). Data was analyzed using SoftMaxPro 5.4.2 software with 4-parameter fitting.

T1 sequence (P15328 25-234 limits assumed): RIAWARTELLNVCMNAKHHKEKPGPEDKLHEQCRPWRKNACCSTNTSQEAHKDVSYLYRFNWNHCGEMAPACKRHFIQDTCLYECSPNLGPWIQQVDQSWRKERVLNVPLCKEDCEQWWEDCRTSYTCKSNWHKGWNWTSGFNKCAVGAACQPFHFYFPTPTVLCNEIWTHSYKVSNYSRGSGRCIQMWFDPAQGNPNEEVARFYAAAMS

Binder | EC50
MORAb-003 (antibody, human IgG1, kappa, V domains shown, Humanized anti-human folate receptor alpha, unconjugated; also called farletuzumab) VH: EVQLVESGGGVVQPGRSLRLSCSASGFTFSGYGLSWVRQAPGKGLEWVAMISSGGSYTYYADSVKGRFAISRDNAKNTLFLQMDSLRPEDTGVYFCARHGDDPAWFAYWGQGTPVTVSS VL: DIQLTQSPSSLSASVGDRVTITCSVSSSISSNNLHWYQQKPGKAPKPWIYGTSNLASGVPSRFSGSGSGTDYTFTISSLQPEDIATYYCQQWSSYPYMYTFGQGTKVEIKR | 0.00629 µg/mL and 0.04 nM
MORAb003-PEG2-eribulin (antibody, human IgG1, kappa, V domains shown, Mal-PEG2-eribulin (non-cleavable) on interchain cysteines, sites not given, Antibody-drug conjugate) VH: EVQLVESGGGVVQPGRSLRLSCSASGFTFSGYGLSWVRQAPGKGLEWVAMISSGGSYTYYADSVKGRFAISRDNAKNTLFLQMDSLRPEDTGVYFCARHGDDPAWFAYWGQGTPVTVSS VL: DIQLTQSPSSLSASVGDRVTITCSVSSSISSNNLHWYQQKPGKAPKPWIYGTSNLASGVPSRFSGSGSGTDYTFTISSLQPEDIATYYCQQWSSYPYMYTFGQGTKVEIKR | 0.00696 µg/mL and 0.05 nM
MORAb003-ER1242287 (antibody, human IgG1, kappa, V domains shown, Mal-PEG8-Val-Cit-pAB-eribulin on interchain cysteines, sites not given, Antibody-drug conjugate) VH: EVQLVESGGGVVQPGRSLRLSCSASGFTFSGYGLSWVRQAPGKGLEWVAMISSGGSYTYYADSVKGRFAISRDNAKNTLFLQMDSLRPEDTGVYFCARHGDDPAWFAYWGQGTPVTVSS VL: DIQLTQSPSSLSASVGDRVTITCSVSSSISSNNLHWYQQKPGKAPKPWIYGTSNLASGVPSRFSGSGSGTDYTFTISSLQPEDIATYYCQQWSSYPYMYTFGQGTKVEIKR | 0.0215 µg/mL and 0.14 nM
MORAb003-ER1236941 (antibody, human IgG1, kappa, V domains shown, NHS-(CH2)5-Val-Cit-pAB-eribulin on lysines, sites not given, Antibody-drug conjugate; DAR 0.77 (LC-MS)) VH: EVQLVESGGGVVQPGRSLRLSCSASGFTFSGYGLSWVRQAPGKGLEWVAMISSGGSYTYYADSVKGRFAISRDNAKNTLFLQMDSLRPEDTGVYFCARHGDDPAWFAYWGQGTPVTVSS VL: DIQLTQSPSSLSASVGDRVTITCSVSSSISSNNLHWYQQKPGKAPKPWIYGTSNLASGVPSRFSGSGSGTDYTFTISSLQPEDIATYYCQQWSSYPYMYTFGQGTKVEIKR | 0.013 µg/mL and 0.09 nM
MORAb003-ER1235638 (antibody, human IgG1, kappa, V domains shown, Mal-(CH2)5-Val-Cit-pAB-eribulin on interchain cysteines, sites not given, Antibody-drug conjugate) VH: EVQLVESGGGVVQPGRSLRLSCSASGFTFSGYGLSWVRQAPGKGLEWVAMISSGGSYTYYADSVKGRFAISRDNAKNTLFLQMDSLRPEDTGVYFCARHGDDPAWFAYWGQGTPVTVSS VL: DIQLTQSPSSLSASVGDRVTITCSVSSSISSNNLHWYQQKPGKAPKPWIYGTSNLASGVPSRFSGSGSGTDYTFTISSLQPEDIATYYCQQWSSYPYMYTFGQGTKVEIKR | 0.0153 µg/mL and 0.1 nM
MORAb003-ER1243700 (antibody, human IgG1, kappa, V domains shown, NHS-PEG3-triazole-PEG3-Val-Cit-pAB-eribulin on lysines, sites not given, Antibody-drug conjugate preparation; DAR 0.00 (LC-MS)) VH: EVQLVESGGGVVQPGRSLRLSCSASGFTFSGYGLSWVRQAPGKGLEWVAMISSGGSYTYYADSVKGRFAISRDNAKNTLFLQMDSLRPEDTGVYFCARHGDDPAWFAYWGQGTPVTVSS VL: DIQLTQSPSSLSASVGDRVTITCSVSSSISSNNLHWYQQKPGKAPKPWIYGTSNLASGVPSRFSGSGSGTDYTFTISSLQPEDIATYYCQQWSSYPYMYTFGQGTKVEIKR | 0.00622 µg/mL and 0.04 nM
MORAb003-ER1231690 (antibody, human IgG1, kappa, V domains shown, Mal-PEG2-(Ala-Ala-Asn-pAB)2-eribulin on interchain cysteines, sites not given, Antibody-drug conjugate) VH: EVQLVESGGGVVQPGRSLRLSCSASGFTFSGYGLSWVRQAPGKGLEWVAMISSGGSYTYYADSVKGRFAISRDNAKNTLFLQMDSLRPEDTGVYFCARHGDDPAWFAYWGQGTPVTVSS VL: DIQLTQSPSSLSASVGDRVTITCSVSSSISSNNLHWYQQKPGKAPKPWIYGTSNLASGVPSRFSGSGSGTDYTFTISSLQPEDIATYYCQQWSSYPYMYTFGQGTKVEIKR | 0.00892 µg/mL and 0.06 nM
MORAb003-ER1159569 (Lot NB3142-62A) (antibody, human IgG1, kappa, V domains shown, Mal-PEG2-Val-Cit-pAB-eribulin on interchain cysteines, sites not given, Antibody-drug conjugate; also called MORAb-003-VCP-eribulin) VH: EVQLVESGGGVVQPGRSLRLSCSASGFTFSGYGLSWVRQAPGKGLEWVAMISSGGSYTYYADSVKGRFAISRDNAKNTLFLQMDSLRPEDTGVYFCARHGDDPAWFAYWGQGTPVTVSS VL: DIQLTQSPSSLSASVGDRVTITCSVSSSISSNNLHWYQQKPGKAPKPWIYGTSNLASGVPSRFSGSGSGTDYTFTISSLQPEDIATYYCQQWSSYPYMYTFGQGTKVEIKR | 0.12 nM and 0.0182 µg/mL
MORAb003-ER1236940 (antibody, human IgG1, kappa, V domains shown, NHS-PEG2-Val-Cit-pAB-eribulin on lysines, sites not given, Antibody-drug conjugate; DAR 0.72 (LC-MS)) VH: EVQLVESGGGVVQPGRSLRLSCSASGFTFSGYGLSWVRQAPGKGLEWVAMISSGGSYTYYADSVKGRFAISRDNAKNTLFLQMDSLRPEDTGVYFCARHGDDPAWFAYWGQGTPVTVSS VL: DIQLTQSPSSLSASVGDRVTITCSVSSSISSNNLHWYQQKPGKAPKPWIYGTSNLASGVPSRFSGSGSGTDYTFTISSLQPEDIATYYCQQWSSYPYMYTFGQGTKVEIKR | 0.017 µg/mL and 0.11 nM
MORAb003-ER1237505 (antibody, human IgG1, kappa, V domains shown, Mal-PEG4-triazole-PEG3-sulfonamide-pAB-eribulin on interchain cysteines, sites not given, Antibody-drug conjugate) VH: EVQLVESGGGVVQPGRSLRLSCSASGFTFSGYGLSWVRQAPGKGLEWVAMISSGGSYTYYADSVKGRFAISRDNAKNTLFLQMDSLRPEDTGVYFCARHGDDPAWFAYWGQGTPVTVSS VL: DIQLTQSPSSLSASVGDRVTITCSVSSSISSNNLHWYQQKPGKAPKPWIYGTSNLASGVPSRFSGSGSGTDYTFTISSLQPEDIATYYCQQWSSYPYMYTFGQGTKVEIKR | 0.0183 µg/mL and 0.12 nM
MORAb003-ER1242288 (antibody, human IgG1, kappa, V domains shown, NHS-PEG9-Val-Cit-pAB-eribulin on lysines, sites not given, Antibody-drug conjugate preparation; DAR 0.00 (LC-MS)) VH: EVQLVESGGGVVQPGRSLRLSCSASGFTFSGYGLSWVRQAPGKGLEWVAMISSGGSYTYYADSVKGRFAISRDNAKNTLFLQMDSLRPEDTGVYFCARHGDDPAWFAYWGQGTPVTVSS VL: DIQLTQSPSSLSASVGDRVTITCSVSSSISSNNLHWYQQKPGKAPKPWIYGTSNLASGVPSRFSGSGSGTDYTFTISSLQPEDIATYYCQQWSSYPYMYTFGQGTKVEIKR | 0.0144 µg/mL and 0.1 nM
MORAb003-PEG4-eribulin (antibody, human IgG1, kappa, V domains shown, Mal-PEG4-eribulin (non-cleavable) on interchain cysteines, sites not given, Antibody-drug conjugate) VH: EVQLVESGGGVVQPGRSLRLSCSASGFTFSGYGLSWVRQAPGKGLEWVAMISSGGSYTYYADSVKGRFAISRDNAKNTLFLQMDSLRPEDTGVYFCARHGDDPAWFAYWGQGTPVTVSS VL: DIQLTQSPSSLSASVGDRVTITCSVSSSISSNNLHWYQQKPGKAPKPWIYGTSNLASGVPSRFSGSGSGTDYTFTISSLQPEDIATYYCQQWSSYPYMYTFGQGTKVEIKR | 0.00931 µg/mL and 0.06 nM
MORAb003-ER1244129 (antibody, human IgG1, kappa, V domains shown, NHS-PEG3-triazole-PEG3-disulfide-pAB-eribulin on lysines, sites not given, Antibody-drug conjugate; DAR 0.24 (LC-MS)) VH: EVQLVESGGGVVQPGRSLRLSCSASGFTFSGYGLSWVRQAPGKGLEWVAMISSGGSYTYYADSVKGRFAISRDNAKNTLFLQMDSLRPEDTGVYFCARHGDDPAWFAYWGQGTPVTVSS VL: DIQLTQSPSSLSASVGDRVTITCSVSSSISSNNLHWYQQKPGKAPKPWIYGTSNLASGVPSRFSGSGSGTDYTFTISSLQPEDIATYYCQQWSSYPYMYTFGQGTKVEIKR | 0.0143 µg/mL and 0.1 nM
MORAb003-ER1231679 (antibody, human IgG1, kappa, V domains shown, Mal-PEG2-Ala-Ala-Asn-pAB-eribulin on interchain cysteines, sites not given, Antibody-drug conjugate) VH: EVQLVESGGGVVQPGRSLRLSCSASGFTFSGYGLSWVRQAPGKGLEWVAMISSGGSYTYYADSVKGRFAISRDNAKNTLFLQMDSLRPEDTGVYFCARHGDDPAWFAYWGQGTPVTVSS VL: DIQLTQSPSSLSASVGDRVTITCSVSSSISSNNLHWYQQKPGKAPKPWIYGTSNLASGVPSRFSGSGSGTDYTFTISSLQPEDIATYYCQQWSSYPYMYTFGQGTKVEIKR | 0.0183 µg/mL and 0.12 nM
MORAb003-ER1237504 (antibody, human IgG1, kappa, V domains shown, Mal-PEG4-triazole-PEG3-disulfide-pAB-eribulin on interchain cysteines, sites not given, Antibody-drug conjugate) VH: EVQLVESGGGVVQPGRSLRLSCSASGFTFSGYGLSWVRQAPGKGLEWVAMISSGGSYTYYADSVKGRFAISRDNAKNTLFLQMDSLRPEDTGVYFCARHGDDPAWFAYWGQGTPVTVSS VL: DIQLTQSPSSLSASVGDRVTITCSVSSSISSNNLHWYQQKPGKAPKPWIYGTSNLASGVPSRFSGSGSGTDYTFTISSLQPEDIATYYCQQWSSYPYMYTFGQGTKVEIKR | 0.0298 µg/mL and 0.2 nM
MORAb003-ER1231691 (antibody, human IgG1, kappa, V domains shown, NHS-PEG2-Ala-Ala-Asn-pAB-eribulin on lysines, sites not given, Antibody-drug conjugate; DAR 0.37 (LC-MS)) VH: EVQLVESGGGVVQPGRSLRLSCSASGFTFSGYGLSWVRQAPGKGLEWVAMISSGGSYTYYADSVKGRFAISRDNAKNTLFLQMDSLRPEDTGVYFCARHGDDPAWFAYWGQGTPVTVSS VL: DIQLTQSPSSLSASVGDRVTITCSVSSSISSNNLHWYQQKPGKAPKPWIYGTSNLASGVPSRFSGSGSGTDYTFTISSLQPEDIATYYCQQWSSYPYMYTFGQGTKVEIKR | 0.0115 µg/mL and 0.08 nM
MORAb003-ER1159569 (Lot NB3073-88L) (antibody, human IgG1, kappa, V domains shown, Mal-PEG2-Val-Cit-pAB-eribulin on interchain cysteines, sites not given, Antibody-drug conjugate; also called MORAb-003-VCP-eribulin) VH: EVQLVESGGGVVQPGRSLRLSCSASGFTFSGYGLSWVRQAPGKGLEWVAMISSGGSYTYYADSVKGRFAISRDNAKNTLFLQMDSLRPEDTGVYFCARHGDDPAWFAYWGQGTPVTVSS VL: DIQLTQSPSSLSASVGDRVTITCSVSSSISSNNLHWYQQKPGKAPKPWIYGTSNLASGVPSRFSGSGSGTDYTFTISSLQPEDIATYYCQQWSSYPYMYTFGQGTKVEIKR | 0.0226 µg/mL and 0.15 nM
MORAb003-ER1244623 (antibody, human IgG1, kappa, V domains shown, NHS-PEG3-triazole-PEG3-sulfonamide-pAB-eribulin on lysines, sites not given, Antibody-drug conjugate; DAR 0.55 (LC-MS)) VH: EVQLVESGGGVVQPGRSLRLSCSASGFTFSGYGLSWVRQAPGKGLEWVAMISSGGSYTYYADSVKGRFAISRDNAKNTLFLQMDSLRPEDTGVYFCARHGDDPAWFAYWGQGTPVTVSS VL: DIQLTQSPSSLSASVGDRVTITCSVSSSISSNNLHWYQQKPGKAPKPWIYGTSNLASGVPSRFSGSGSGTDYTFTISSLQPEDIATYYCQQWSSYPYMYTFGQGTKVEIKR | 0.00454 µg/mL and 0.03 nM
MORAb003-DBCO-ER1237508 (antibody, human IgG1, kappa, V domains shown, NHS-PEG4-DBCO on lysines, then azide-PEG3-disulfide-pAB-eribulin by SPAAC; sites not given, Antibody-drug conjugate) VH: EVQLVESGGGVVQPGRSLRLSCSASGFTFSGYGLSWVRQAPGKGLEWVAMISSGGSYTYYADSVKGRFAISRDNAKNTLFLQMDSLRPEDTGVYFCARHGDDPAWFAYWGQGTPVTVSS VL: DIQLTQSPSSLSASVGDRVTITCSVSSSISSNNLHWYQQKPGKAPKPWIYGTSNLASGVPSRFSGSGSGTDYTFTISSLQPEDIATYYCQQWSSYPYMYTFGQGTKVEIKR | 0.0241 µg/mL and 0.16 nM
